Reference: patent US20220275357A1, “CAPSULE PROTEIN AND MULTIMERIC COMPLEX COMPOSITION THEREOF, AND PHARMACEUTICAL COMPOSITION USING SAME” (UNIVERSITY PUBLIC CORPORATION OSAKA, priority 2019, published 2022)

What was measured:
Format in all cases: physicochemical
[1] = Size measurement by small-angle X-ray scattering (SAXS); conditions: 25° C.; for Rg: radius of gyration from Guinier region
Procedure: Size of the obtained octameric composition was measured by small-angle X-ray scattering (SAXS). For comparison, size of the mutant L-PGDS was also measured.
SAXS data collection was carried out at BL40B2, a beamline in the SPring-8 synchrotron radiation facility (Sayo-gun, Hyogo). The X-ray wavelength was tuned to 1.000 A (angstrom), the sample-to-detector distance was set to 2.193 m, and the experiments were performed at 25° C. The exposure times for each measurement were 20 to 50 s. Scattering intensity was recorded with PILATUS-2M (RIGAKU, Tokyo) as a detector.
A sample cell with a thickness of 3.0 mm was used to maximize scattering of X-ray. The windows of the cell were made of 0.02 mm thick quartz plates. To avoid systematic errors, the inventor measured the sample (protein) and buffer solutions alternately. 25 μL of a sample solution was placed in the cell for its data collection. The solution was removed from the cell; and the cell was then washed 3 times with a buffer solution before data collection of the next sample solution.
Two-dimensionally recorded scattering patterns of the protein sample and the buffer solutions were transformed to a one-dimensional profile by circular averaging. Contributions to scattering intensities from the solvent were eliminated from the raw data of the sample solutions by subtracting the intensity profile obtained for the buffer solution. Scattering profiles in the small-angle region were analyzed by Guinier's approximation for monodispersive systems: The scattering intensity (I (S,C)) as a function of reciprocal vector (S) and protein concentration (C), is expressed by the forward scattering intensity (I(0,C)) and the radius of gyration Rg(C) (See the following formula (1)).
wherein, 2θ represents the scattering angle relative to the incident beam, and λ represents the X-ray wavelength.
The radius of gyration Rg for each sample solution was calculated from Guinier region in its scattering profile. […]

[2] = Equilibrium dialysis of dipyridamole-loaded capsule proteins (holding force); conditions: dipyridamole encapsulated instead of SN-38, external solution PBS, FIG. 10
Procedure: (§1) With a dialysis membrane (Dialysis Membrane, Size 27 Wako molecular weight cut-off: 14,000), each 5 mL of samples was each dialyzed against 150 mL of PBS as an external solution in an incubator at 37° C. for 72 hours. Each of the samples included the solution of SN-38/mutant L-PGDS, SN-38/barrier-attached D-clip mutant or SN-38/targeting barrier-attached D-clip mutant. The samples were prepared to contain 50 uM of SN-38 and 50 uM of the respective capsule proteins.
(§2) At 0, 1, 3, 6, 8, 12, 24, 36, 48, 60, and 72 hours after the start of dialysis, 500 μL of the external solution was sampled, and the same amount of PBS was added instead. SN-38 concentration in the sampled external solutions was measured with a fluorescence spectrophotometer F-7000 (HITACHI; excitation wavelength: 365 nm; measuring wavelength: 380 to 600 nm; and monitoring temperature: 37° C.).
Dipyridamole is a poorly water-soluble antianginal drug. The external solution was PBS. Referring to FIG. 10, the horizontal and the left vertical axes represent the reaction time (hr) and dipyridamole concentration (nM), respectively. In addition, the right vertical axis represents the release rate (%), or a value converted from the concentration on the left vertical axis.

[3] = Drug releasing capacity: equilibrium dialysis of SN-38-loaded capsule proteins
Procedure: as §1, §2
Subsequently, drug release function in response to a reducing environment of the barrier-attached D-clip mutant and the targeting barrier-attached D-clip mutant was evaluated by equilibrium dialysis method in the same manner as described above. PBS and 10 mM DTT/PBS solutions were used as the external solutions for dialysis. The external PBS and 10 mM DTT/PBS solutions simulated oxidizing and reducing environments, respectively.
The horizontal axis represents reaction time (hr), and the vertical axis represents SN-38 concentration (nM). Error bars represent the standard error of the mean, or mean±standard error (n=3). The abbreviations or symbols in the figure have the following meanings: “SN-38/L-PGDS” or “●” represents SN-38/mutant L-PGDS; “SN-38/Capsule” or “▴” represents SN-38/barrier-attached D-clip mutant; and “SN-38/Cap-sCRGDK” or “▪” represents SN-38/targeting barrier-attached D-clip mutant. The symbols “Δ” and “□” with“+10 mM DTT” represent the results of the pharmaceutical compositions, i.e.“SN-38/Capsule” and “SN-38/Cap-sCRGDK” in the presence of 10 mM DTT, respectively. The addition of DTT (Dithiothreitol) allows the solutions to have a strong reducing environment. […]

Molecule	Dmax [1] [nm]	Rg ([1]; listed as Monomer) [nm]	Rg ([1]; listed as monomer (mutant L-PGDS)) [nm]	dipyridamole concentration in external solution [2]	concentration of SN-38 in the external DTT/PBS solution ([3]; 10 mM DTT/PBS, reached within shorter reaction time, then almost a plateau, FIG. 9(a)) [µM]	SN-38 concentration in the external DTT/PBS solution ([3]; 10 mM DTT/PBS, at the first 48 hours of dialysis, FIG. 9(b))	concentration of SN-38 in the external solution PBS ([3]; PBS, at the end of the monitoring period, FIG. 9(b)) [µM]
mutant L-PGDS: human L-PGDS variant SEQ ID NO: 2 with C45A and C147A substitutions, GS added to N-terminus (protein, N-terminal GS added; Enzyme inactivation Mutant) GSAPEAQVSVQPNFQQDKFLGRWFSAGLASNSSWLREKKAALSMAKSVVAPATDGGLNLTSTFLRKNQCETRTMLLQPAGSLGSYSYRSPHWGSTYSVSVVETDYDQYALLYSQGSKGPGEDFRMATLYSRTQTPRAELKEKFTAFAKAQGFTEDTIVFLPQTDKCMTEQ	4.75	1.8 ± 0.04	1.8±0.04	increased over the reaction time	2.0		
barrier-attached mutant (protein, Barrier Mutant) GSAPEAQVSVQPNFQQDKFLGRWFSAGLASNSSWLREKKAALSMAKSVVAPATDGGLNLTSTFLRKNQCETRTWLLQPAGSLGSYSYRSPHWGSTYSVSVVETDYDQYALLYSQGSKGPGEDFRMATLYSRTQTPRAELKEKFTAFAKAQGFTEDTIVFLPQTDKCMTEQ				increased only to the vicinity of the detection limit		approximately 2.0 μM	≤ 1.0
